Drawing on patent US20210113615A1 (LUDWIG INSTITUTE FOR CANCER RESEARCH, published 2021), this text covers Kd for four molecules.

Experiment [1] addresses T1, Bcl-XL (B-cell lymphoma-extra-large), wildtype sequence as tested (human, UniProt Q07817 1-209).
T1 construct: It is shorter than full-length Bcl-xL: E96 of the wildtype numbering stands at position 56; Bcl-XL was immobilized in SPR; also called Protein B

Experiment [2] has as its target T2, Bcl-2 (BCL-2 sequence as tested in Example 5) (Homo sapiens (Human), UniProt P10415 1-207).
T2 construct: It was immobilized in SPR
The experiment in a line: not stated here (heading in the sequence table); target Bcl-2 (first of the two values, 'respectively').

The target in experiment [3] is T1, Bcl-XL (B-cell lymphoma-extra-large), …. The experiment can be described thus: SPR, Biacore 8K; Bcl-xL immobilized, Des3 variant injected in serial dilutions. How it is done:
(§1) Affinity (nM) values were calculated by Surface plasmon resonance (SPR) data on a Biacore 8K device.
(In general: SPR reads the build-up and loss of mass on a sensor chip optically.)

Experiment [4] shares this target. The experiment in a line: method not stated for this value (Example 1); Example 1, binder named 1LE4A; approximate value, method not stated.
For experiment [5] the target is unchanged. The experiment can be described thus: SPR, LD3:Bcl-XL binding interaction, sensorgrams with fitted curves.
Experiment [6] deals with T2, Bcl-2 (BCL-2 sequence as tested in …). The experiment in a line: SPR, Biacore 8K; Bcl-2 immobilized, Des3 variant injected in serial dilutions. How it is done:
as §1

Read-outs that look alike come from different tables or passages of the source.

T1 sequence (Q07817 other isoform, or with tags, fused parts or gaps limits assumed): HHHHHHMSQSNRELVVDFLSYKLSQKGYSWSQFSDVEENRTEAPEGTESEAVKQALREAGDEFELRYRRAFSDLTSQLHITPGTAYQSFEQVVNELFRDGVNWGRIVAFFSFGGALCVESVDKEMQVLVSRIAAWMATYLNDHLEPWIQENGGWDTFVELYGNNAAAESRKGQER
T2 sequence (P10415 1-207 limits assumed): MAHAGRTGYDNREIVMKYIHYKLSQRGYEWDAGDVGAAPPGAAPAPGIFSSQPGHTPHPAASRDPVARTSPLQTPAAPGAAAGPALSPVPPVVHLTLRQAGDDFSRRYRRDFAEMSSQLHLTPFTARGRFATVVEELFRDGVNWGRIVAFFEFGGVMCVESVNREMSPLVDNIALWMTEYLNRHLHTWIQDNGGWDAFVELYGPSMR

B1: LD3 (lead design 3: Bcl-XL binder designed on human apolipoprotein E4, PDB ID 1LE4 chain A) (designed binder)
chain: HHHHHHQRWELALGRFLEYLSWVSTLSEQVQEELLSSQVTQELRALMDETMKELKAYKSELEEQLTPVAEETRARLSKELQAAQARLGADMEDVRGRLVQYRGEVQAMLGQSTEELRVRLASHLIALQLRLIGDAFDLQKRLAVYQAGA
notes: No single sentence states these identities; also called Des3; DES3
Consider B1, for which the Kd (as a rule, a measure of binding affinity in units of concentration) was 0.004 nM in experiment [1]; 0.8 nM in experiment [2]; 0.004 nM in experiment [3]; ~0.4 nM in experiment [4]; ~0.004 nM in experiment [5]; 0.8 nM in experiment [6].

B2: Des3a (slightly weaker affinity binder, GLU124ALA) (designed binder)
chain: QRWELALGRFLAYLSWVSTLSEQVQEELLSSQVTQELRALMDETMKELKAYKSELEEQLTPVAEETRARLSKELQAAQARLGADMEDVRGRLVQYRGEVQAMLGQSTEELRVRLASHLIALQLRLIGDAFDLQKRLAVYQAGA
B2 registered a Kd in experiment [6] of 16.8 nM.

B3: Des3c (weakest affinity Des3 binder, ASP240ALA) (designed binder)
chain: QRWELALGRFLEYLSWVSTLSEQVQEELLSSQVTQELRALMDETMKELKAYKSELEEQLTPVAEETRARLSKELQAAQARLGADMEDVRGRLVQYRGEVQAMLGQSTEELRVRLASHLIALQLRLIGAAFDLQKRLAVYQAGA
B3 gave a Kd in experiment [6] of 147 nM.

B4: Des3b (medium affinity binder, LEU235ALA) (designed binder)
chain: QRWELALGRFLEYLSWVSTLSEQVQEELLSSQVTQELRALMDETMKELKAYKSELEEQLTPVAEETRARLSKELQAAQARLGADMEDVRGRLVQYRGEVQAMLGQSTEELRVRLASHLIALQARLIGDAFDLQKRLAVYQAGA
Take B4: in experiment [6], the Kd worked out at 64.1 nM.
